{"source": "patent US20140087995A1", "about": "(published 2014)", "key": {"[1]": {"target": "T1, human calcitonin receptor (human, UniProt P30988 25-474)", "T1 sequence (looked up)": "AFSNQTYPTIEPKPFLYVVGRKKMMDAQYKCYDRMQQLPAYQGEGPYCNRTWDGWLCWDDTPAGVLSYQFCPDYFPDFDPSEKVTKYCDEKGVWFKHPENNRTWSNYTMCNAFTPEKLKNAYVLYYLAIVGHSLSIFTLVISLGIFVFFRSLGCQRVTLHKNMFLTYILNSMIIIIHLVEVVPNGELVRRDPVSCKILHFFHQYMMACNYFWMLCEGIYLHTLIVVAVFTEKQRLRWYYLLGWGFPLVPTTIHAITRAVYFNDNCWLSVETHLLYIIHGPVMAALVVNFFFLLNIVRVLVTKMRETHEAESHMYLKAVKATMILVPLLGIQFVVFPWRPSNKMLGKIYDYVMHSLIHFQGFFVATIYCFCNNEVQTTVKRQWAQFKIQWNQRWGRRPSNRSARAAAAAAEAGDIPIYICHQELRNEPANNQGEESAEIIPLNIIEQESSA", "test": "cell-based or functional assay"}, "[2]": {"target": "T2, human amylin receptor (amylin 3(a) receptor: human calcitonin receptor co-expressed with RAMP-3) (human, UniProt P30988 25-474; O60896 24-148, limits assumed)", "T2 sequence (looked up) 1": "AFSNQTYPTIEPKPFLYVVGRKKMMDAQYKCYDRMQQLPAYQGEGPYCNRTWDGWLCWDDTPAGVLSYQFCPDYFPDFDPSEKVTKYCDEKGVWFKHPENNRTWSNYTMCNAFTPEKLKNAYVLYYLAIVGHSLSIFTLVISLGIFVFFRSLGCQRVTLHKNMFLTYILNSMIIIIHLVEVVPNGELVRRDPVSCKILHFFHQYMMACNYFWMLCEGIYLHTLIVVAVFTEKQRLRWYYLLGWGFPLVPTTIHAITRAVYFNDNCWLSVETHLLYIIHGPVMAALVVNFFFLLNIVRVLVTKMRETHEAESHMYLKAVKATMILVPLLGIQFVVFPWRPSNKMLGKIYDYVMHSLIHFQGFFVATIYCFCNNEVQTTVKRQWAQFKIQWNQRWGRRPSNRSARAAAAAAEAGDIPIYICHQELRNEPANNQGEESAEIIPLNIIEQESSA", "T2 sequence (looked up) 2": "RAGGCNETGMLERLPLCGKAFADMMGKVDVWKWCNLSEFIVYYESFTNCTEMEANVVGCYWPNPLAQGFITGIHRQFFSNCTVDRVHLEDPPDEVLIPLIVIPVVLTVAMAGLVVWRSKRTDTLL", "test": "cell-based or functional assay"}}, "note": "Numbered stars: 1 amine (or outer) side, 2 acyl side, 3 side chain; on linkers, the order of the positions; unused ones are H or OH. Bridge positions count the residues as written; N and C are the ends. Side chains are listed from the residue outwards. Ends that are not written are not given here. * marks the point of attachment. C20 diacid = O=C(O)CCCCCCCCCCCCCCCCCCC(=O)*; γGlu = O=C(O)[C@H](CCC(=O)[*:2])N[*:1]; AEEA = NCCOCCOCC(=O)O", "data": [{"binder": "K([AEEA-γGlu-C20 diacid])CNTATCATQRLAGFLRHSSPNFGAIPSSTPVGSNTY-NH2 (disulfide 2-7; N-terminus assumed; SMILES CC[C@H](C)[C@H](NC(=O)[C@H](C)NC(=O)CNC(=O)[C@H](Cc1ccccc1)NC(=O)[C@H](CC(N)=O)NC(=O)[C@@H]1CCCN1C(=O)[C@H](CO)NC(=O)[C@H](CO)NC(=O)[C@H](Cc1c[nH]cn1)NC(=O)[C@H](CCCNC(=N)N)NC(=O)[C@H](CC(C)C)NC(=O)[C@H](Cc1ccccc1)NC(=O)CNC(=O)[C@H](C)NC(=O)[C@H](CC(C)C)NC(=O)[C@H](CCCNC(=N)N)NC(=O)[C@H](CCC(N)=O)NC(=O)[C@@H](NC(=O)[C@H](C)NC(=O)[C@@H]1CSSC[C@H](NC(=O)[C@@H](N)CCCCNC(=O)COCCOCCNC(=O)CC[C@H](NC(=O)CCCCCCCCCCCCCCCCCCC(=O)O)C(=O)O)C(=O)N[C@@H](CC(N)=O)C(=O)N[C@@H]([C@@H](C)O)C(=O)N[C@@H](C)C(=O)N[C@@H]([C@@H](C)O)C(=O)N1)[C@@H](C)O)C(=O)N1CCC[C@H]1C(=O)N[C@@H](CO)C(=O)N[C@@H](CO)C(=O)N[C@H](C(=O)N1CCC[C@H]1C(=O)N[C@H](C(=O)NCC(=O)N[C@@H](CO)C(=O)N[C@@H](CC(N)=O)C(=O)N[C@H](C(=O)N[C@@H](Cc1ccc(O)cc1)C(N)=O)[C@@H](C)O)C(C)C)[C@@H](C)O, also called compound 71)", "values": [{"measurement": "hCTR funct. EC50", "setting": "[1]", "value": 0.527, "unit": "nM"}, {"measurement": "hAmylin-R funct. EC50", "setting": "[2]", "value": 0.056, "unit": "nM"}]}, {"binder": "K([AEEA-γGlu-C20 diacid])CNTATCATQRLAHFLRHSSPNFGAIPSSTNVGRNTY-NH2 (disulfide 2-7; N-terminus assumed; SMILES CC[C@H](C)[C@H](NC(=O)[C@H](C)NC(=O)CNC(=O)[C@H](Cc1ccccc1)NC(=O)[C@H](CC(N)=O)NC(=O)[C@@H]1CCCN1C(=O)[C@H](CO)NC(=O)[C@H](CO)NC(=O)[C@H](Cc1c[nH]cn1)NC(=O)[C@H](CCCNC(=N)N)NC(=O)[C@H](CC(C)C)NC(=O)[C@H](Cc1ccccc1)NC(=O)[C@H](Cc1c[nH]cn1)NC(=O)[C@H](C)NC(=O)[C@H](CC(C)C)NC(=O)[C@H](CCCNC(=N)N)NC(=O)[C@H](CCC(N)=O)NC(=O)[C@@H](NC(=O)[C@H](C)NC(=O)[C@@H]1CSSC[C@H](NC(=O)[C@@H](N)CCCCNC(=O)COCCOCCNC(=O)CC[C@H](NC(=O)CCCCCCCCCCCCCCCCCCC(=O)O)C(=O)O)C(=O)N[C@@H](CC(N)=O)C(=O)N[C@@H]([C@@H](C)O)C(=O)N[C@@H](C)C(=O)N[C@@H]([C@@H](C)O)C(=O)N1)[C@@H](C)O)C(=O)N1CCC[C@H]1C(=O)N[C@@H](CO)C(=O)N[C@@H](CO)C(=O)N[C@H](C(=O)N[C@@H](CC(N)=O)C(=O)N[C@H](C(=O)NCC(=O)N[C@@H](CCCNC(=N)N)C(=O)N[C@@H](CC(N)=O)C(=O)N[C@H](C(=O)N[C@@H](Cc1ccc(O)cc1)C(N)=O)[C@@H](C)O)C(C)C)[C@@H](C)O, also called compound 84)", "values": [{"measurement": "hCTR funct. EC50", "setting": "[1]", "value": 5.49, "unit": "nM"}, {"measurement": "Ratio hCT/hAmylin funct.", "setting": "[2]", "value": 32.5}, {"measurement": "hAmylin-R funct. EC50", "setting": "[2]", "value": 0.169, "unit": "nM"}]}, {"binder": "K([AEEA-γGlu-C20 diacid])CNTATCATQRLAHFLRHSSPNFGAIPSSTNVGPNTY-NH2 (disulfide 2-7; N-terminus assumed; SMILES CC[C@H](C)[C@H](NC(=O)[C@H](C)NC(=O)CNC(=O)[C@H](Cc1ccccc1)NC(=O)[C@H](CC(N)=O)NC(=O)[C@@H]1CCCN1C(=O)[C@H](CO)NC(=O)[C@H](CO)NC(=O)[C@H](Cc1c[nH]cn1)NC(=O)[C@H](CCCNC(=N)N)NC(=O)[C@H](CC(C)C)NC(=O)[C@H](Cc1ccccc1)NC(=O)[C@H](Cc1c[nH]cn1)NC(=O)[C@H](C)NC(=O)[C@H](CC(C)C)NC(=O)[C@H](CCCNC(=N)N)NC(=O)[C@H](CCC(N)=O)NC(=O)[C@@H](NC(=O)[C@H](C)NC(=O)[C@@H]1CSSC[C@H](NC(=O)[C@@H](N)CCCCNC(=O)COCCOCCNC(=O)CC[C@H](NC(=O)CCCCCCCCCCCCCCCCCCC(=O)O)C(=O)O)C(=O)N[C@@H](CC(N)=O)C(=O)N[C@@H]([C@@H](C)O)C(=O)N[C@@H](C)C(=O)N[C@@H]([C@@H](C)O)C(=O)N1)[C@@H](C)O)C(=O)N1CCC[C@H]1C(=O)N[C@@H](CO)C(=O)N[C@@H](CO)C(=O)N[C@H](C(=O)N[C@@H](CC(N)=O)C(=O)N[C@H](C(=O)NCC(=O)N1CCC[C@H]1C(=O)N[C@@H](CC(N)=O)C(=O)N[C@H](C(=O)N[C@@H](Cc1ccc(O)cc1)C(N)=O)[C@@H](C)O)C(C)C)[C@@H](C)O, also called compound 68)", "values": [{"measurement": "hCTR funct. EC50", "setting": "[1]", "value": 0.932, "unit": "nM"}, {"measurement": "hAmylin-R funct. EC50", "setting": "[2]", "value": 0.054, "unit": "nM"}]}, {"binder": "K([AEEA-γGlu-C20 diacid])CNTATCATQRLAHFLRHSSPNFGAIPSSTNVGHNTY-NH2 (disulfide 2-7; N-terminus assumed; SMILES CC[C@H](C)[C@H](NC(=O)[C@H](C)NC(=O)CNC(=O)[C@H](Cc1ccccc1)NC(=O)[C@H](CC(N)=O)NC(=O)[C@@H]1CCCN1C(=O)[C@H](CO)NC(=O)[C@H](CO)NC(=O)[C@H](Cc1c[nH]cn1)NC(=O)[C@H](CCCNC(=N)N)NC(=O)[C@H](CC(C)C)NC(=O)[C@H](Cc1ccccc1)NC(=O)[C@H](Cc1c[nH]cn1)NC(=O)[C@H](C)NC(=O)[C@H](CC(C)C)NC(=O)[C@H](CCCNC(=N)N)NC(=O)[C@H](CCC(N)=O)NC(=O)[C@@H](NC(=O)[C@H](C)NC(=O)[C@@H]1CSSC[C@H](NC(=O)[C@@H](N)CCCCNC(=O)COCCOCCNC(=O)CC[C@H](NC(=O)CCCCCCCCCCCCCCCCCCC(=O)O)C(=O)O)C(=O)N[C@@H](CC(N)=O)C(=O)N[C@@H]([C@@H](C)O)C(=O)N[C@@H](C)C(=O)N[C@@H]([C@@H](C)O)C(=O)N1)[C@@H](C)O)C(=O)N1CCC[C@H]1C(=O)N[C@@H](CO)C(=O)N[C@@H](CO)C(=O)N[C@H](C(=O)N[C@@H](CC(N)=O)C(=O)N[C@H](C(=O)NCC(=O)N[C@@H](Cc1c[nH]cn1)C(=O)N[C@@H](CC(N)=O)C(=O)N[C@H](C(=O)N[C@@H](Cc1ccc(O)cc1)C(N)=O)[C@@H](C)O)C(C)C)[C@@H](C)O, also called compound 80)", "values": [{"measurement": "hCTR funct. EC50", "setting": "[1]", "value": 2.14, "unit": "nM"}, {"measurement": "hAmylin-R funct. EC50", "setting": "[2]", "value": 0.139, "unit": "nM"}]}, {"binder": "K([AEEA-γGlu-C20 diacid])CNTATCATQRLAHFLRHSSPNFGAIPSSTPVGSNTY-NH2 (disulfide 2-7; N-terminus assumed; SMILES CC[C@H](C)[C@H](NC(=O)[C@H](C)NC(=O)CNC(=O)[C@H](Cc1ccccc1)NC(=O)[C@H](CC(N)=O)NC(=O)[C@@H]1CCCN1C(=O)[C@H](CO)NC(=O)[C@H](CO)NC(=O)[C@H](Cc1c[nH]cn1)NC(=O)[C@H](CCCNC(=N)N)NC(=O)[C@H](CC(C)C)NC(=O)[C@H](Cc1ccccc1)NC(=O)[C@H](Cc1c[nH]cn1)NC(=O)[C@H](C)NC(=O)[C@H](CC(C)C)NC(=O)[C@H](CCCNC(=N)N)NC(=O)[C@H](CCC(N)=O)NC(=O)[C@@H](NC(=O)[C@H](C)NC(=O)[C@@H]1CSSC[C@H](NC(=O)[C@@H](N)CCCCNC(=O)COCCOCCNC(=O)CC[C@H](NC(=O)CCCCCCCCCCCCCCCCCCC(=O)O)C(=O)O)C(=O)N[C@@H](CC(N)=O)C(=O)N[C@@H]([C@@H](C)O)C(=O)N[C@@H](C)C(=O)N[C@@H]([C@@H](C)O)C(=O)N1)[C@@H](C)O)C(=O)N1CCC[C@H]1C(=O)N[C@@H](CO)C(=O)N[C@@H](CO)C(=O)N[C@H](C(=O)N1CCC[C@H]1C(=O)N[C@H](C(=O)NCC(=O)N[C@@H](CO)C(=O)N[C@@H](CC(N)=O)C(=O)N[C@H](C(=O)N[C@@H](Cc1ccc(O)cc1)C(N)=O)[C@@H](C)O)C(C)C)[C@@H](C)O, also called compound 61)", "values": [{"measurement": "hCTR funct. EC50", "setting": "[1]", "value": 0.554, "unit": "nM"}, {"measurement": "hAmylin-R funct. EC50", "setting": "[2]", "value": 0.051, "unit": "nM"}]}]}
